Test results reported in paper PMC3678169 (The Journal of Cell Biology, 2013).
Each block holds one binder with its values, some of them ahead of it. Where no end group is shown, it is not given here. The star is where a group is joined. Dansyl = CN(C)c1cccc2c(S(=O)(=O)*)cccc12

B1: His-tagged Tiam1 PHn-CC-Ex domain (429–702) (domain or fragment, human, UniProt Q13009 429-702, looked up)
chain: AAQGTVRKAGALAVKNFLVHKKNKKVESATRRKWKHYWVSLKGCTLFFYESDGRSGIDHNSIPKHAVWVENSIVQAVPEHPKKDFVFCLSNSLGDAFLFQTTSQTELENWITAIHSACATAVARHHHKEDTLRLLKSEIKKLEQKIDMDEKMKKMGEMQLSSVTDSKKKKTILDQIFVWEQNLEQFQMDLFRFRCYLASLQGGELPNPKRLLAFASRPTKVAMGRLGIFSVSSFHALVAARTGETGVRRRTQAMSRSASKRRSRFSSLWGLDTT
B2: GST-p67 fusion (natural protein, human, UniProt P19878 1-526, looked up)
chain: MSLVEAISLWNEGVLAADKKDWKGALDAFSAVQDPHSRICFNIGCMYTILKNMTEAEKAFTRSINRDKHLAVAYFQRGMLYYQTEKYDLAIKDLKEALIQLRGNQLIDYKILGLQFKLFACEVLYNIAFMYAKKEEWKKAEEQLALATSMKSEPRHSKIDKAMECVWKQKLYEPVVIPVGKLFRPNERQVAQLAKKDYLGKATVVASVVDQDSFSGFAPLQPQAAEPPPRPKTPEIFRALEGEAHRVLFGFVPETKEELQVMPGNIVFVLKKGNDNWATVMFNGQKGLVPCNYLEPVELRIHPQQQPQEESSPQSDIPAPPSSKAPGRPQLSPGQKQKEEPKEVKLSVPMPYTLKVHYKYTVVMKTQPGLPYSQVRDMVSKKLELRLEHTKLSYRPRDSNELVPLSEDSMKDAWGQVKNYCLTLWCENTVGDQGFPDEPKESEKADANNQTTEPQLKKGSQVEALFSYEATQPEDLEFQEGDIILVLSKVNEEWLEGECKGKVGIFPKVFVEDCATTDLESTRREV

Columns and labels:
GST-p67 fusion = molecular target: B2; assay: pull-down
[1] = molecular target: 15N-labeled Tiam1 PDZ domain (human, UniProt Q13009 841-930); assay: NMR titration
[2] = molecular target: His-tagged Tiam1 PHn-PHc (423–1406) (human, UniProt Q13009 423-1406); assay: pull-down
Chain of His-tagged Tiam1 PHn-PHc (423–1406) (Q13009 423-1406): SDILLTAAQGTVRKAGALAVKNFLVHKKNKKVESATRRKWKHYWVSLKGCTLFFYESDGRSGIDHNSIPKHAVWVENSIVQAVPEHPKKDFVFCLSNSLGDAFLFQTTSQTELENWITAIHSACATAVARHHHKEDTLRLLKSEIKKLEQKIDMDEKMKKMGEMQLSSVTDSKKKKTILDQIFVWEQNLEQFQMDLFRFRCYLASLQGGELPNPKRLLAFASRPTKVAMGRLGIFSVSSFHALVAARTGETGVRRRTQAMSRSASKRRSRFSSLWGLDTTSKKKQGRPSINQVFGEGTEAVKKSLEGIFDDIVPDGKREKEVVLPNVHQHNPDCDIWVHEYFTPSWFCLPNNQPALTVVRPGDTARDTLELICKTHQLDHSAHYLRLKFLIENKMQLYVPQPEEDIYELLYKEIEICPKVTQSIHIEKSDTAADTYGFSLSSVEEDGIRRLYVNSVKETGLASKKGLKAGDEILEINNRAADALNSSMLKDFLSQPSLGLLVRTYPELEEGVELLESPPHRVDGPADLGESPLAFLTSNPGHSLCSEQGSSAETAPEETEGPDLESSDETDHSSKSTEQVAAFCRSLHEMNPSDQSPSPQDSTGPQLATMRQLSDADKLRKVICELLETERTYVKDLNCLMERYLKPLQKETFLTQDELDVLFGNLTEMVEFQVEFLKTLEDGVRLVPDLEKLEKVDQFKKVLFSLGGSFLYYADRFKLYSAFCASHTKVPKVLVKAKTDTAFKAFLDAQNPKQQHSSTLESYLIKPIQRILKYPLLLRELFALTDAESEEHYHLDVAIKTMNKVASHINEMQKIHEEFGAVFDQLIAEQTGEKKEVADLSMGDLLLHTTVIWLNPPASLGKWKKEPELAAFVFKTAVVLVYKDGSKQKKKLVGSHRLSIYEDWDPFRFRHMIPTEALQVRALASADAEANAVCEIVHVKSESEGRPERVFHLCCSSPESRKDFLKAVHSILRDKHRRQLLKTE

Chain of 15N-labeled Tiam1 PDZ domain (Q13009 841-930): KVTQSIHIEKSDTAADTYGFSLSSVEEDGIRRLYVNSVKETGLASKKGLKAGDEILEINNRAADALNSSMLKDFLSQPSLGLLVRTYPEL

Binder: B1
- binding result (GST-p67 fusion): binds

- Kd [1]: 980 ± 150 µM
Binder: Dansyl-MLAELYGSDPREELLY [human VE-cadherin peptide (654–669; MLAELYGSDPREELLY)]

Binder: B2
- binding result [2]: binds
